B1: Ab1007: conventional TCE positive control (antibody)
heavy 1: EVQLVQSGPGLVQPGGSVRISCAASGYTFTNYGMNWVKQAPGKGLEWMGWINTYTGESTYADSFKGRFTFSLDTSASAAYLQINSLRAEDTAVYYCARFAIKGDYWGQGTLLTVSSASTKGPSVFPLAPSSKSTSGGTAALGCLVKDYFPEPVTVSWNSGALTSGVHTFPAVLQSSGLYSLSSVVTVPSSSLGTQTYICNVNHKPSNTKVDKKVEPKSCDKTHTCPPCPAPEAAGGPSVFLFPPKPKDTLMISRTPEVTCVVVDVSHEDPEVKFNWYVDGVEVHNAKTKPREEQYNSTYRVVSVLTVLHQDWLNGKEYKCKVSNKALGAPIEKTISKAKGQPREPMVFDLPPSREEMTKNQVSLWCMVKGFYPSDIAVEWESNGQPENNYKTTPPVLDSDGSFFLYSKLTVDKSRWQQGNVFSCSVMHEALHNHYTQKSLSLSPGKHHHHHH
heavy 2: EVQLVESGGGLVQPGGSLRLSCAASGFTFNTYAMNWVRQAPGKGLEWVARIRSKYNNYATYYADSVKGRFTISRDDSKSILYLQMNSLRAEDTAVYYCVRHGNFGNSYVSWFAYWGQGTLVTVSSGGGGSGGGGSGGGGSDIQVTQSPSSLSASVGDRVTITCRSSTGAVTTSNYANWVQQKPGKAFKGLIGGTNKLAPGVPSRFSGSLSGDDATLTISSLQPEDFATYYCALWYSNLWVFGQGTKLEIKGGGGSDKTHTCPPCPAPEAAGGPSVFLFPPKPKDTLMISRTPEVTCVVVDVSHEDPEVKFNWYVDGVEVHNAKTKPREEQYNSTYRVVSVLTVLHQDWLNGKEYKCKVSNKALGAPIEKTISKAKGQPREPQVYTLPPIRELMTSNQVSLSCAVKGFYPSDIAVEWESNGQPENNYKTTPPVLDSDGSFFLVSKLTVDKSRWQQGNVFSCSVMHEALHNHYTQKSLSLSPGK
light: DIQMTQSPSSLSASVGDRVTITCRSTKSLLHSNGITYLYWYQQKPGKAPKLLIYQMSNLASGVPSRFSSSGSGTDFTLTISSLQPEDFATYYCAQNLEIPRTFGQGTKVELKRTVAAPSVFIFPPSDEQLKSGTASVVCLLNNFYPREAKVQWKVDNALQSGNSQESVTEQDSKDSTYSLSSTLTLSKADYEKHKVYACEVTHQGLSSPVTKSFNRGEC
modifications: REGION 1..452: note = Ab1007 Knob HC; REGION 1..482: note = Ab1007 Hole HC; REGION 1..219: note = Ab1007 Knob LC
notes: conventional TCE positive control
B2: Ab0637: LS2B; HC: V29F+M100eL+M100hL on Ab0596; parent of R4b (antibody, V domains shown)
VH: EVQLVESGGGLVQPGGSLRLSCAASGFDFSSYSIHWVRQAPGKGLEWVASISPYYGSTYYADSVKGRFTISADTSKNTAYLQMNSLRAEDTAVYYCARYYEWYKYSLYLGSLGFDYWGQGTLVTVSS
VL: DIQMTQSPSSLSASVGDRVTITCRASQSVSSAVAWYQQKPGKAPKLLIYSASSLYSGVPSRFSGSRSGTDFTLTISSLQPEDFATYYCQQGGYSLITFGQGTKVEIK

Experiments:
[1] = tested on: HCT-116-NR target cells; assay: Real-time TDCC by time-lapse microscopy; format: cell-based, human; conditions: 10 nM antibodies, 250 nM indinavir, 5 μM quencher, 120 hours
Experimental: FIG. 42 depicts real-time measurement of TDCC in a co-culture assay for three exemplary T-LITE pairs. […] T-LITE antibodies were held constant at 10 nM with indinavir (250 nM) added to some wells, as indicated (“ON”). In some wells, a conventional TCE (Ab1007) was included as a positive control. In some wells, an anti-indinavir quencher antibody (5 μM) was added at various time points, as indicated (“OFF”). […] In some wells, no indinavir was added (“Always OFF”). Killing was interrupted by the addition of the quencher at earlier time points (“OFF at” 30 min, 24 h, 44 h, or 49 h). Killing occurred at levels similar to the no-quencher condition (“Always ON”) if the quencher was added at the latest time point (68 h). The assay was performed with human T-cells and HCT-116-NR target cells for 120 hours.
The kinetics of TDCC in a co-culture assay were measured using time-lapse microscopy (FIG. 42). […] To test how T-LITE-activated T-cells respond to the removal of indinavir, an “anti-indinavir quencher” was used. […]
Co-cultures of magnetically isolated human T-cells and target cells were prepared as described above for TDCC assays, with some modifications. […] The IncuCyte software was used to quantify Normalized target cell abundance (red object area per image, normalized to T=0 h).

[2] = UPLC-SEC retention time; format: physicochemical; conditions: Table 13
Experimental: LS2B antibody clones derived from the phage display campaign were profiled by analytical UPLC-SEC using a Thermo Vanquish Flex HPLC with a MabPAC 4.6×150 mm SEC column equilibrated in 1×PBS-HCl at pH 7.0. Retention time of each clone was compared to Ab0254 to assess overall developability.
UPLC-SEC was performed on a Thermo Scientific Vanquish Flex UHPLC system. Protein was diluted to 1-5 μM in HBS buffer and then 1.5-10 μL of sample was injected onto a MabPAC 4.6×150 mm in 1×PBS-HCl at pH 7.0. Data were continuously acquired at ˜280 nm and processed on the Chromeleon 7 software (Thermo Scientific). For the low pH hold assay, prior to injection on the UHPLC, samples were held at pH 3.5 for 1 hour followed by neutralization. For the complex assembly assay, the MabPAC 4.6×150 mm column was pre-equilibrated with 1×PBS-HCl at pH 7.0 and 10 μM Indinavir.

[3] = Differential scanning fluorimetry (DSF) melting temperature; format: physicochemical; conditions: Table 13
Experimental: DSF was performed on a LC480 Lightcycler Instrument II (Roche). Purified recombinant protein was diluted to 5 μM in DSF buffer (PBS, pH 7.4, Sypro Orange 5×) with small molecule (10 μM VTX) or vehicle (0.05% DMSO) and then heated with a temperature gradient (0.01° C./s) from 25 to 95° C. Data were continuously acquired at ˜465 nm (excitation) and ˜580 nm (emission). Data was analyzed to generate first derivative curves in which the curve maximum was reported as the melting temperature of the protein.

| Molecule | real-time TDCC of HCT-116-NR target cells [1] | SEC RT [2] | TM (° C.) [3] |
| --- | --- | --- | --- |
| B1 | depleted of target cells |  |  |
| B2 |  | 17.205 min | 78.3 °C |

Source: patent publication US20240190987A1, “Engineered EpCam Binding Antibodies” (TigaTX, priority 2021, published 2024)
